Source: US20170174769A1 (Regeneron, published 2017)
Values joined by “and” are separate entries in the source; they are usually repeats but may differ in a detail not shown here. Equal entries are not always repeated.

Experiments:
[1] = molecular target: T1, extracellular domain of human FGFR1c expressed with C-terminal V5 and hexahistidine tags (human, UniProt P11362 22-376); assay: SPR, mAb captured, 25 C
T1 construct: also called hFGFR1c-V5-6His
T1 sequence: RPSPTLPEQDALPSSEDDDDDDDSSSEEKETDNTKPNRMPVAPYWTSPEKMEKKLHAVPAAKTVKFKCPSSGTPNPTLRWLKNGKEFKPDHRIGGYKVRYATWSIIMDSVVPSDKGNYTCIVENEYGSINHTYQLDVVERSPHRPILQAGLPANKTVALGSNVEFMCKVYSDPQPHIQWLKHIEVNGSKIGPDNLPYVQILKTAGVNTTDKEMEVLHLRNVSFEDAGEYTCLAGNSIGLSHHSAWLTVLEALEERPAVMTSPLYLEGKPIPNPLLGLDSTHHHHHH
Procedure: (§1) Equilibrium dissociation constants (KD values) for human KLB or human FGFR1c binding to purified anti-KLB/FGFR1c monoclonal antibodies were determined using a real-time surface plasmon resonance biosensor using a Biacore T-200 or 4000 instrument. The Biacore sensor surface was derivatized by amine coupling with either a polyclonal rabbit anti-mouse antibody (GE, # BR-1008-38) or with a monoclonal mouse anti-human Fc antibody (GE, # BR-1008-39) to capture anti-KLB/FGFR1c monoclonal antibodies expressed with either a mouse Fc or a human Fc, respectively. All Biacore binding studies were performed in a buffer composed of 0.01M HEPES pH 7.4, 0.15M NaCl, 3mM EDTA, 0.05% v/v Surfactant P20 (HBST running buffer). […] Association of hKLB-HA-6His or hFGFR1c-V5-6His to the captured monoclonal antibody was monitored for 3.5 to 4 minutes and the dissociation of hKLB-HA-6His or hFGFR1c-V5-6His in HBST running buffer was monitored for 8-12 minutes. All the binding kinetics experiments were performed at 25° C. or 37° C. Kinetic association (kₐ) and dissociation (kd) rate constants were determined by fitting the real-time sensorgrams to a 1:1 binding model using Scrubber 2.0c curve fitting software. Binding dissociation equilibrium constants (KD) and dissociative half-lives (t½) were calculated from the kinetic rate constants as: […]

[2] = molecular target: M. fascicularis KLB and human FGFR1c co-expressed on HEK293/MfKLB/hFGFR1c/SRE-Luc cells (M. fascicularis; human, UniProt A0A2K5WB58 1-1044); assay: cell-based or functional assay
M. fascicularis KLB and human FGFR1c co-expressed on HEK293/MfKLB/hFGFR1c/SRE-Luc cells, sequence (chain, as listed by the source, chain 1 of 2): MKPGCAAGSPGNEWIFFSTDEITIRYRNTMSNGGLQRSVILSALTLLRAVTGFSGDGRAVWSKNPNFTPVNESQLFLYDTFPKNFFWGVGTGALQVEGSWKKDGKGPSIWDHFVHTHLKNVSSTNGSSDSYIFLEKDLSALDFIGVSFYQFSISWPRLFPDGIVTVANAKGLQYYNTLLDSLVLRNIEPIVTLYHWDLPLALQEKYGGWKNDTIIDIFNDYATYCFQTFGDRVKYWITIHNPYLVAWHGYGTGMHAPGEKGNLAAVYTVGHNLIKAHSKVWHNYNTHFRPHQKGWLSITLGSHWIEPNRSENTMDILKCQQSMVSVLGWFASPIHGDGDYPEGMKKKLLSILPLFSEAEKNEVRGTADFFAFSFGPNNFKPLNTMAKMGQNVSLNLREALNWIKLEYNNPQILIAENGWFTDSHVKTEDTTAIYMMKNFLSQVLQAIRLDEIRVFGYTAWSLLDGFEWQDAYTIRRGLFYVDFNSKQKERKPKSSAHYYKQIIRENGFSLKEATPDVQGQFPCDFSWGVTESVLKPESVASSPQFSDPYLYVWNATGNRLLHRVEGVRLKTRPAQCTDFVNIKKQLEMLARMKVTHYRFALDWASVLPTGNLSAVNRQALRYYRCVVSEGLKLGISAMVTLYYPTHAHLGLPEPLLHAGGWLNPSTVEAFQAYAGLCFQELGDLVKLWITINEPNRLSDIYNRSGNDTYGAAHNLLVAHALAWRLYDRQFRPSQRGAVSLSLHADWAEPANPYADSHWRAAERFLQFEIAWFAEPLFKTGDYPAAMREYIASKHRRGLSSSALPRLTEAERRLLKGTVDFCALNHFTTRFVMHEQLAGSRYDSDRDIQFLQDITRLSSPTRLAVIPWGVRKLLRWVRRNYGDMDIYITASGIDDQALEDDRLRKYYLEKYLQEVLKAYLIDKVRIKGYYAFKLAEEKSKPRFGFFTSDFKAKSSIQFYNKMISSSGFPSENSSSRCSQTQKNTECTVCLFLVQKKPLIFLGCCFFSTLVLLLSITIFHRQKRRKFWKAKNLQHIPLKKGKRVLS
M. fascicularis KLB and human FGFR1c co-expressed on HEK293/MfKLB/hFGFR1c/SRE-Luc cells, sequence (chain, as listed by the source, chain 2 of 2): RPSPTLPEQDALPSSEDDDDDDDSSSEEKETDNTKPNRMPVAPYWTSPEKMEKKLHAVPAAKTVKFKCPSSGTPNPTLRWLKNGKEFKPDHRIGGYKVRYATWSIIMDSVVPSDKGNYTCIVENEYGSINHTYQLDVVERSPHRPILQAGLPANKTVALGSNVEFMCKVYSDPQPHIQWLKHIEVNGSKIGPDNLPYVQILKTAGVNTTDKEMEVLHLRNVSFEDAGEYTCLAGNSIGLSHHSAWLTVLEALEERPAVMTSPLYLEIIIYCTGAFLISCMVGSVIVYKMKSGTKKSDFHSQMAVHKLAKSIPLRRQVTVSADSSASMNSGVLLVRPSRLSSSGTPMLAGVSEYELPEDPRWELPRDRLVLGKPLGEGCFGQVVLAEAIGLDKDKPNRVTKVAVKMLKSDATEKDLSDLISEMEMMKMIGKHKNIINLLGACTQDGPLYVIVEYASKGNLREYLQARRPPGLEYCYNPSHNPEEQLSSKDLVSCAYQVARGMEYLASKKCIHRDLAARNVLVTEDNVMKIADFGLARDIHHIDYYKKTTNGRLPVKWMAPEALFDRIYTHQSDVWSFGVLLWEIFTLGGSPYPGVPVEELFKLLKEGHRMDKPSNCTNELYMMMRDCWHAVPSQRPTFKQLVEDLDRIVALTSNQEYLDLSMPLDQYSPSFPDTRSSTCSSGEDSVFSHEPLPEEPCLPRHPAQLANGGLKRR

[3] = molecular target: T1, extracellular domain of human FGFR1c …; assay: SPR, mAb captured, 37 C
Procedure: as §1

[4] = molecular target: T2, full-length human FGFR1c on HEK293/hFGFR1c/SRE-luc cells (human, UniProt P11362 22-822); assay: FACS on stable HEK293 cells
T2 construct: amino acids 1-733 of NP_075593
T2 sequence (P11362 other isoform, or with tags, fused parts or gaps limits assumed): as the sequence (chain, as listed by the source, chain 2 of 2) above
Procedure: To determine binding specificity of the monoclonal anti-KLB/FGFR1c antibodies, the antibodies were tested in a fluorescence-activated cell sorting (FACS) binding assay to cell lines expressing human FGFR1c, human KLB, and both human FGFR1c and human KLB. HEK293 cell lines were generated that stably express full-length human FGFR1c (hFGFR1c; SEQ ID NO:433) or full-length human KLB (hKLB; SEQ ID NO:434) or both human FGFR1c and human KLB, along with a luciferase reporter [SRE (serum response element)-luciferase, SA Bioscience, #CLS-010L]. The resulting cell lines, referred to as HEK293/hFGFR1c/SRE-luc, HEK293/hKLB/SRE-luc, and HEK293/hKLB/hFGFR1c/SRE-luc, respectively, were maintained in DMEM supplemented with 10% FBS, NEAA, penicillin/streptomycin, 1 μg/mL puromycin and […] hygromycin B, 1 μg/mL puromycin and 500 μg/mL G418, or all three antibiotics.
For the FACS analysis, HEK293 parental, HEK293/hFGFR1c/SRE-luc, HEK293/hKLB/SRE-luc, and HEK293/hKLB/hFGFR1c/SRE-luc cells were dissociated and plated onto 96-well v-bottom plates at 5 x 10⁵ cells/well in PBS containing 1% FBS. […] Cells were filtered and subsequently analyzed on a Hypercyte Flow Cytometer (Intellicyt Corp.). Unstained and secondary antibody alone controls were also tested for binding to all cell lines. The results were analyzed using FlowJo version 9.52 software and geometric mean (Geom. Mean) of fluorescence for viable cells was determined. Geom. mean of fluorescence for each antibody was then normalized to Geom. mean of unstained cells to obtain relative binding of antibody (binding ratios) per each cell type.

[5] = molecular target: mouse KLB and mouse FGFR1c co-expressed on HEK293/mKLB/mFGFR1c/SRE-Luc cells (mouse); assay: cell-based or functional assay
[6] = molecular target: human KLB and human FGFR1c co-expressed on HEK293/hKLB/hFGFR1c/SRE-luc cells (human, UniProt Q86Z14 1-1044; P11362 22-822); assay: cell-based or functional assay
[7] = molecular target: T3, extracellular domain of human KLB expressed with C-terminal HA and hexahistidine tags (human, UniProt Q86Z14 1-996); assay: SPR, mAb captured, 25 C
T3 construct: also called hKLB-HA-6His; hKLB-HA-6his
T3 sequence: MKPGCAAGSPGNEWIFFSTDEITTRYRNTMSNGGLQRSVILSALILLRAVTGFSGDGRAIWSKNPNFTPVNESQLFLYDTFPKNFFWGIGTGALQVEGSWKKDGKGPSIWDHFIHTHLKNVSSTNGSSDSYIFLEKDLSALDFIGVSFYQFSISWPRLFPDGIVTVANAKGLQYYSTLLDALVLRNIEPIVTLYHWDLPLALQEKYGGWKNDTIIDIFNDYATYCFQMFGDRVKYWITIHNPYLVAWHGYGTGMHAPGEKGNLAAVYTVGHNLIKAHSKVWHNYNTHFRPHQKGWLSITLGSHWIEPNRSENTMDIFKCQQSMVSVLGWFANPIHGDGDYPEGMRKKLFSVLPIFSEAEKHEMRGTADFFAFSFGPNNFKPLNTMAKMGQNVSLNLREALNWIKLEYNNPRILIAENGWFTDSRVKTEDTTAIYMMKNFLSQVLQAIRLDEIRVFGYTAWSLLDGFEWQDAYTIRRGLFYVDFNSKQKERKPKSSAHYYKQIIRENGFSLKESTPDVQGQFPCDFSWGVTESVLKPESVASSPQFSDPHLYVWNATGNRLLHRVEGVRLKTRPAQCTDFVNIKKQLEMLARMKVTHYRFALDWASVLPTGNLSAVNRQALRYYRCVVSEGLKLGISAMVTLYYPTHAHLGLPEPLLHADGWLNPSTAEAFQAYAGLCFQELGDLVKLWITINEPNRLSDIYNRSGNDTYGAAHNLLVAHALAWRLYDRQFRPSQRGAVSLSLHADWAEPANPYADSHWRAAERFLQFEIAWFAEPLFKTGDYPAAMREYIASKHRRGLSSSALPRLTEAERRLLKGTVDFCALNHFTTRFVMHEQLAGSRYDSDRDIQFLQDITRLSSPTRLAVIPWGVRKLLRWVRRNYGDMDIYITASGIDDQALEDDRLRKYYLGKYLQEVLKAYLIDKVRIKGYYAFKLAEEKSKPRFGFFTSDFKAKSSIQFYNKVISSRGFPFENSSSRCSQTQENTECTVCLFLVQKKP
Procedure: as §1

[8] = molecular target: T3, extracellular domain of human KLB …; assay: SPR, mAb captured, 37 C
Procedure: as §1

[9] = molecular target: cell-surface human FGFR1c (amino acids 1-731 of NP_075594) with cell-surface human KLB on … (human, UniProt P11362 22-822); assay: cell-based or functional assay
cell-surface human FGFR1c (amino acids 1-731 of NP_075594) with cell-surface human KLB on …, sequence (P11362 22-822): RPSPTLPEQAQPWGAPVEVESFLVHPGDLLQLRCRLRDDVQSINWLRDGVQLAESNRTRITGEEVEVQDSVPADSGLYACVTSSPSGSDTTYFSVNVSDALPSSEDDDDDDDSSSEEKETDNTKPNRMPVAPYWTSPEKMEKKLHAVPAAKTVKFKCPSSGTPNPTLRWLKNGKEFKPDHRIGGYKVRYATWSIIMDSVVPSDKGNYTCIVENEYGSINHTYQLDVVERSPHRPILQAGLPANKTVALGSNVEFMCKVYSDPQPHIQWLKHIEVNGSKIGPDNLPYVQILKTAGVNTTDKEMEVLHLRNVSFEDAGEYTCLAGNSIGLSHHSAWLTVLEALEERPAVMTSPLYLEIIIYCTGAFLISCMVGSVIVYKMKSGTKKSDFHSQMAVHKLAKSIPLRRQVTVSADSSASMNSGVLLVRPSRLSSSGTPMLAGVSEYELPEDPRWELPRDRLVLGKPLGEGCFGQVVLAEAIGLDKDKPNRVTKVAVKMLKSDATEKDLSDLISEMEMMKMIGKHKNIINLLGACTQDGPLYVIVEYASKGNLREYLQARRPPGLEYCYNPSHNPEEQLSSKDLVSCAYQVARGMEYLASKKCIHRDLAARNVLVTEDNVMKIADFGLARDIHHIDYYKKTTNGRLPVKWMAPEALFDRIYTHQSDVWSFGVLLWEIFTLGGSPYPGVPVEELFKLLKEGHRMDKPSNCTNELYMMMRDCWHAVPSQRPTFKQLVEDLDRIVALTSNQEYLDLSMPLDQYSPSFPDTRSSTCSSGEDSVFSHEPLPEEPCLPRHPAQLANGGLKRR

B1: H2bM8833N (antibody, V domains shown)
VH: QVQLVESGGGVVQPGRSLRLSCAASGFTFSRYGIHWVRQAPGKGLEWVAVIWYDGSNKYYADSLKGRFTISRDNSKNTLYLQMNSLRAEDTAVYYCARDQGNYIDYWGQGTLVTVSS
VL: AIQMTQSPSSLSASVGDRVTITCRTSQGIRNDLGWYQQKPGKVPKLLIYAASSLQSGVPSRFSGSGSGTDFTLTISSLQPEDFATYYCLQDYNYPFTFGPGTKVDIK
notes: mouse IgG2 Fc (H2bM prefix)
In the case of B1, the “180 nM hFGFR1c-V5-6His Bind (RU)” value [1] is reported as 1.9 RU, the “IC50, inhibition of 10 nM mfFGF21” value [2] is reported as 0.099 nM and the “Maximum Inhibition (%) of 10 nM mfFGF21” value [2] is reported as 16%. For the same binder, the “180 nM hFGFR1c-V5-6His Bind (RU)” value [3] was 1.4 RU and the “binding ratio to unstained cells” value [4] was 9 fold.

B2: mouse FGF21 (ligand, UniProt Q9JJN1 29-210, looked up)
chain: AYPIPDSSPLLQFGGQVRQRYLYTDDDQDTEAHLEIREDGTVVGAAHRSPESLLELKALKPGVIQILGVKASRFLCQQPDGALYGSPHFDPEACSFRELLLEDGYNVYQSEAHGLPLRLPQKDSPNQDATSWGPVRFLPMPGLLHEPQDQAGFLPPEPPDVGSSDPLSMVEPLQGRSPSYAS
B2 was tested, and the “EC50, SRE-luc activation by ligand” value [5] was 0.33 nM and 0.37 nM.

B3: scFv8092N-IgG4mutFc x scFv8900P-IgG4mutFc* Heterodimer (bispecific antibody)
chain 1: not shown
chain 2: QVQLVESGGGVVQPGRSLRLSCVASGFTFSSYGMHWVRQAPGKGLEWVAVISFDGSNKYYADSVKGRFTISRDNSKNTLYLQMNSLRPADTAVYYCAKDRSNYYYFGMDVWGQGTTVTVSSGGGGSGGGGSGGGGSDIVMTQTPLSLPVTPGEPASISCRSSQSLLDSDDGNTYLDWYLQKPGQSPQLLIYTLSYRASGVPDRFSGSGSGTDFTLKISRVEAEDVGVYYCMQRIEFPLTFGGGTKVEIKGGGGSGGGGSGGGGSESKYGPPCPPCPAPEFLGGPSVFLFPPKPKDTLMISRTPEVTCVVVDVSQEDPEVQFNWYVDGVEVHNAKTKPREEQFNSTYRVVSVLTVLHQDWLNGKEYKCKVSNKGLPSSIEKTISKAKGQPREPQVYTLPPSQEEMTKNQVSLTCLVKGFYPSDIAVEWESNGQPENNYKTTPPVLDSDGSFFLYSRLTVDKSRWQEGNVFSCSVMHEALHNRFTQKSLSLSPGK
notes: also called 8900P ScFv-Fc*/8092N ScFv-Fc; H4H8900P ScFv-Fc*/H4H8092N ScFv-Fc
With B3 the “EC50, SRE-luc activation without ligand” value [6] was 0.28 nM, the “IC50, inhibition of 1 nM 6His-hFGF21” value [6] was 0.39 nM and the “Maximum Activation (%)” value [6] was 0.5%. For the same binder, the “Maximum Inhibition (%)” value [6] was 90%, the “180 nM hFGFR1c-V5-6His Bind (RU)” value [1] was 0.9 RU and the binding result [1] was “no binding (tested: 180 nM)”. For the same binder, the “20 nM hKLB-HA-6His Bind (RU)” value [7] was 27.3 RU, the Kd [7] was 0.318 nM and the koff [7] was 3.94e-05 s⁻¹. For the same binder, the kon [7] was 124000 M⁻¹ s⁻¹, the t1/2 [7] was 4.89 h and the “180 nM hFGFR1c-V5-6His Bind (RU)” value [3] was 0.4 RU. The “20 nM hKLB-HA-6His Bind (RU)” value [8] was 86.7 RU, the Kd [8] was 1.3 nM and the koff [8] was 0.000178 s⁻¹. For the same binder, the kon [8] was 137000 M⁻¹ s⁻¹, the t1/2 [8] was 1.08 h and the “% Activation” value [9] was 1.6%. For the same binder, the “EC50, SRE-luc activation” value [9] was over 5 nM.

B4: H2bM8096N (antibody, V domains shown)
VH: QVQLVESGGGVVQPGRSLRLSCAASGFTFSSYGLHWVRQAPGKGLEWVAVIWHDGSHKYYADSVKGRFTISRDNSKNTVYLQMNSLRAEDTAVYYCARDGIPVAEDYYLYGMDVWGQGTTVTVSS
VL: EIVLTQSPGTLSLSPGERATLSCRASQSVDSSYLAWYHQKPGQAPRLLIYGASSRATGIPDRFSGSGSGTDFTLTISRLEPEDFAVYYCQQYGSSRTFGQGTKVEIK
notes: mouse IgG2 Fc (H2bM prefix)
For B4, the “180 nM hFGFR1c-V5-6His Bind (RU)” value [1] was -0.7 RU and the “180 nM hFGFR1c-V5-6His Bind (RU)” value [3] was -1.2 RU.
